US20200024330A1

Legend:
[1] = biological target: Env of the clade B HIV-1 pseudoviruses of the cross-clade 162-pseudovirus panel (n = 31); experiment: cell-based or functional assay
[2] = biological target: HIV-1 JR-CSF Env N302A (HIV-1 JR-CSF) (UniProt P20871); experiment: cell-based or functional assay
[3] = biological target: HIV-1 JRFL envelope glycoprotein (Env) (HIV-1); experiment: cell-based or functional assay
[4] = biological target: HIV-1 JR-CSF Env Q337A (HIV-1 isolate JR-CSF) (UniProt P20871); experiment: cell-based or functional assay
[5] = biological target: HIV-1 MGRM-C-027 envelope glycoprotein (Env) (HIV-1); experiment: cell-based or functional assay
[6] = biological target: HIV-1 JR-CSF Env T297A (HIV-1 JR-CSF) (UniProt P20871); experiment: cell-based or functional assay
[7] = biological target: HIV-1 Env of isolate MGRM-AE-003 (HIV-1); experiment: cell-based or functional assay
[8] = biological target: HIV-1 92BR020 envelope glycoprotein (Env) (HIV-1); experiment: cell-based or functional assay
[9] = biological target: HIV-1 JR-CSF Env I424A (HIV-1 (isolate JR-CSF)) (UniProt P20871); experiment: cell-based or functional assay
[10] = biological target: HIV-1 APV6 envelope glycoprotein (Env) (HIV-1); experiment: cell-based or functional assay
[11] = biological target: HIV-1 JR-CSF Env T388A (HIV-1 (isolate JR-CSF)) (UniProt P20871); experiment: cell-based or functional assay
[12] = biological target: Env of all HIV-1 pseudoviruses of the cross-clade 162-pseudovirus panel (n = 162); experiment: cell-based or functional assay
[13] = biological target: HIV-1 Env of isolate MGRM-A-006 (HIV-1); experiment: cell-based or functional assay
[14] = biological target: HIV-1 JR-CSF Env N301A (HIV-1 JR-CSF) (UniProt P20871); experiment: cell-based or functional assay
[15] = biological target: HIV-1 JR-CSF Env H330A (HIV-1 isolate JR-CSF) (UniProt P20871); experiment: cell-based or functional assay
[16] = biological target: HIV-1 JR-CSF Env T341A (HIV-1 isolate JR-CSF) (UniProt P20871); experiment: cell-based or functional assay
[17] = biological target: HIV-1 JR-CSF Env I423A (HIV-1 (isolate JR-CSF)) (UniProt P20871); experiment: cell-based or functional assay
[18] = biological target: HIV-1 JR-CSF Env S334A (HIV-1 isolate JR-CSF) (UniProt P20871); experiment: cell-based or functional assay
[19] = biological target: HIV-1 JR-CSF Env I307A (HIV-1 JR-CSF) (UniProt P20871); experiment: cell-based or functional assay
[20] = biological target: HIV-1 Env of isolate 92UG031 (HIV-1); experiment: cell-based or functional assay
[21] = biological target: HIV-1 JR-CSF Env N332A (HIV-1 isolate JR-CSF) (UniProt P20871); experiment: cell-based or functional assay
[22] = biological target: HIV-1 JR-CSF Env T320A (HIV-1 isolate JR-CSF) (UniProt P20871); experiment: cell-based or functional assay
[23] = biological target: HIV-1 JR-CSF Env I309A (HIV-1 JR-CSF) (UniProt P20871); experiment: cell-based or functional assay
[24] = biological target: HIV-1 JR-CSF Env I415A (HIV-1 (isolate JR-CSF)) (UniProt P20871); experiment: cell-based or functional assay
[25] = biological target: HIV-1 JR-CSF Env S199A (HIV-1 JR-CSF) (UniProt P20871); experiment: cell-based or functional assay
[26] = biological target: HIV-1 JR-CSF Env N411A (HIV-1 (isolate JR-CSF)) (UniProt P20871); experiment: cell-based or functional assay
[27] = biological target: HIV-1 Env of isolate MGRM-A-005 (HIV-1); experiment: cell-based or functional assay
[28] = biological target: HIV-1 Env of isolate 94KE105 (HIV-1); experiment: cell-based or functional assay
[29] = biological target: Env of the clade G HIV-1 pseudoviruses of the cross-clade 162-pseudovirus panel (n = 15); experiment: cell-based or functional assay
[30] = biological target: HIV-1 JR-CSF Env N241A (HIV-1 JR-CSF) (UniProt P20871); experiment: cell-based or functional assay
[31] = biological target: HIV-1 JR-CSF Env T413A (HIV-1 (isolate JR-CSF)) (UniProt P20871); experiment: cell-based or functional assay
[32] = biological target: HIV-1 APV17 envelope glycoprotein (Env) (HIV-1); experiment: cell-based or functional assay
[33] = biological target: HIV-1 JR-CSF Env I414A (HIV-1 (isolate JR-CSF)) (UniProt P20871); experiment: cell-based or functional assay
[34] = biological target: HIV-1 JR-CSF Env T319A (HIV-1 isolate JR-CSF) (UniProt P20871); experiment: cell-based or functional assay
[35] = biological target: HIV-1 JR-CSF Env R350A (HIV-1 isolate JR-CSF) (UniProt P20871); experiment: cell-based or functional assay
[36] = biological target: HIV-1 JR-CSF Env F210A (HIV-1 JR-CSF) (UniProt P20871); experiment: cell-based or functional assay
[37] = biological target: HIV-1 Env of isolate MGRM-C-026 (HIV-1); experiment: cell-based or functional assay
[38] = biological target: Env of the clade D HIV-1 pseudoviruses of the cross-clade 162-pseudovirus panel (n = 25); experiment: cell-based or functional assay
[39] = biological target: HIV-1 MGRM-A-010 envelope glycoprotein (Env) (HIV-1); experiment: cell-based or functional assay
[40] = biological target: HIV-1 JR-CSF Env T394A (HIV-1 (isolate JR-CSF)) (UniProt P20871); experiment: cell-based or functional assay
[41] = biological target: WT JR-FL gp120 (HIV-1 (isolate JR-FL)); experiment: ELISA on coated gp120; EC50 by nonlinear regression
[42] = biological target: JR-FL gp120 ΔV1/ΔV2 (HIV-1 (isolate JR-FL)); experiment: as above

B1: PGT-125 (antibody, V domains shown)
VH: QSQLQESGPRLVEASETLSLTCNVSGESTGACTYFWGWVRQAPGKGLEWIGSLSHCQSFWGSGWTFHNPSLKSRLTISLDTPKNQVFLKLTSLTAADTATYYCARFDGEVLVYNHWPKPAWVDLWGRGIPVTVSS
VL: QSALTQPPSASGSPGQSITISCNGTATNFVSWYQQFPDKAPKLIIFGVDKRPPGVPDRFSGSRSGTTASLTVSRLQTDDEAVYYCGSLVGNWDVIFGGGTTLTVL
- Median IC50 against viruses neutralized with an IC50 <50 µg/ml [1]: 0.02 µg/mL
- Fold IC50 increase relative to wild-type [2]: 0.7 fold
- IC50 neutralization [3]: 0.0156 µg/mL
- Fold IC50 increase relative to wild-type [4]: 0.8 fold
- IC50 neutralization [5]: > 10 µg/mL
- Fold IC50 increase relative to wild-type [6]: 0.9 fold
- IC50 (µg/mL), pseudovirus neutralization [7]: 0.092 µg/mL
- IC50 neutralization [8]: 0.0214 µg/mL
- Fold IC50 increase relative to wild-type [9]: 0.7 fold
- IC50 neutralization [10]: 0.0359 µg/mL
- Fold IC50 increase relative to wild-type [11]: 0.6 fold
- Median IC50 against viruses neutralized with an IC50 <50 µg/ml [12]: 0.04 µg/mL
- IC50 (µg/mL), pseudovirus neutralization [13]: > 50 µg/mL
- Fold IC50 increase relative to wild-type [14]: 213 fold
- Fold IC50 increase relative to wild-type [15]: 0.7 fold
- Fold IC50 increase relative to wild-type [16]: 1.1 fold
- Fold IC50 increase relative to wild-type [17]: 5 fold
- Fold IC50 increase relative to wild-type [18]: 0.8 fold
- Fold IC50 increase relative to wild-type [19]: 5 fold
- IC50 (µg/mL), pseudovirus neutralization [20]: > 50 µg/mL
- Fold IC50 increase relative to wild-type [21]: 2 fold
- Fold IC50 increase relative to wild-type [22]: 0.8 fold
- Fold IC50 increase relative to wild-type [23]: 1 fold
- Fold IC50 increase relative to wild-type [24]: 0.3 fold
- Fold IC50 increase relative to wild-type [25]: 0.7 fold
- Fold IC50 increase relative to wild-type [26]: 0.5 fold
- IC50 (µg/mL), pseudovirus neutralization [27]: > 50 µg/mL
- IC50 (µg/mL), pseudovirus neutralization [28]: 0.004 µg/mL
- Median IC50 against viruses neutralized with an IC50 <50 µg/ml [29]: 0.02 µg/mL
- Fold IC50 increase relative to wild-type [30]: 0.5 fold
- Fold IC50 increase relative to wild-type [31]: 0.5 fold
- IC50 neutralization [32]: 7.31 µg/mL
- Fold IC50 increase relative to wild-type [33]: 0.3 fold
- Fold IC50 increase relative to wild-type [34]: 1.1 fold
- Fold IC50 increase relative to wild-type [35]: 0.6 fold
- Fold IC50 increase relative to wild-type [36]: 1.4 fold
- Polyclonal Transfectant Neutralization Index (well 5123 A6) [37]: 88.3
- Primary Neutralization Index (B cell culture well 5123 A6) [37]: 512
- Median IC50 against viruses neutralized with an IC50 <50 µg/ml [38]: 0.09 µg/mL
- IC50 neutralization [39]: 0.0055 µg/mL
- Fold IC50 increase relative to wild-type [40]: 0.6 fold
- EC50 [41]: 0.2 µg/mL
- EC50 [42]: 0.6 µg/mL

B2: PGT-126 (antibody, V domains shown)
VH: QPQLQESGPGLVEASETLSLTCTVSGDSTAACDYFWGWVRQPPGKGLEWIGGLSHCAGYYNTGWTYHNPSLKSRLTISLDTPKNQVFLKLNSVTAADTAIYYCARFDGEVLVYHDWPKPAWVDLWGRGTLVTVSS
VL: QSALTQPPSASGSPGQSISISCTGTSNRFVSWYQQHPGKAPKLVIYGVNKRPSGVPDRFSGSKSGNTASLTVSGLQTDDEAVYYCSSLVGNWDVIFGGGTKLTVL
- Median IC50 against viruses neutralized with an IC50 <50 µg/ml [1]: 0.02 µg/mL
- Fold IC50 increase relative to wild-type [2]: 0.9 fold
- IC50 neutralization [3]: 0.014 µg/mL
- Fold IC50 increase relative to wild-type [4]: 0.4 fold
- IC50 neutralization [5]: 1.14 µg/mL
- Fold IC50 increase relative to wild-type [6]: 0.8 fold
- IC50 (µg/mL), pseudovirus neutralization [7]: > 50 µg/mL
- IC50 neutralization [8]: 0.0163 µg/mL
- Fold IC50 increase relative to wild-type [9]: 0.4 fold
- IC50 neutralization [10]: 0.0249 µg/mL
- Fold IC50 increase relative to wild-type [11]: 0.6 fold
- Median IC50 against viruses neutralized with an IC50 <50 µg/ml [12]: 0.04 µg/mL
- IC50 (µg/mL), pseudovirus neutralization [13]: > 50 µg/mL
- Fold IC50 increase relative to wild-type [14]: 314 fold
- Fold IC50 increase relative to wild-type [15]: 0.5 fold
- Fold IC50 increase relative to wild-type [16]: 0.5 fold
- Fold IC50 increase relative to wild-type [17]: 1.1 fold
- Fold IC50 increase relative to wild-type [18]: > 30 fold
- Fold IC50 increase relative to wild-type [19]: 1.8 fold
- IC50 (µg/mL), pseudovirus neutralization [20]: > 50 µg/mL
- Fold IC50 increase relative to wild-type [21]: 181 fold
- Fold IC50 increase relative to wild-type [22]: 0.6 fold
- Fold IC50 increase relative to wild-type [23]: 1.2 fold
- Fold IC50 increase relative to wild-type [24]: 0.3 fold
- Fold IC50 increase relative to wild-type [25]: 0.8 fold
- Fold IC50 increase relative to wild-type [26]: 0.7 fold
- IC50 (µg/mL), pseudovirus neutralization [27]: > 50 µg/mL
- IC50 (µg/mL), pseudovirus neutralization [28]: 0.006 µg/mL
- Median IC50 against viruses neutralized with an IC50 <50 µg/ml [29]: 0.18 µg/mL
- Fold IC50 increase relative to wild-type [30]: 0.6 fold
- Fold IC50 increase relative to wild-type [31]: 0.7 fold
- IC50 neutralization [32]: 0.501 µg/mL
- Fold IC50 increase relative to wild-type [33]: 0.4 fold
- Fold IC50 increase relative to wild-type [34]: 0.8 fold
- Fold IC50 increase relative to wild-type [35]: 0.7 fold
- Fold IC50 increase relative to wild-type [36]: 1.5 fold
- Polyclonal Transfectant Neutralization Index (well 5141 B17) [37]: 102
- Primary Neutralization Index (B cell culture well 5141 B17) [37]: 654
- Median IC50 against viruses neutralized with an IC50 <50 µg/ml [38]: 0.04 µg/mL
- IC50 neutralization [39]: 0.0033 µg/mL
- Fold IC50 increase relative to wild-type [40]: 0.6 fold
- EC50 [41]: 0.1 µg/mL
- EC50 [42]: 0.3 µg/mL
